The results in this text go back to US20260265385A1, “CD122 BINDING AGENTS AND METHOD OF USING SAME” (AnaptysBio, Inc., priority 2022, published 2026).

The target of experiment [1] is human IL-2Rβ (CD122), full-length, on cells (human) (UniProt P14784). Kind of experiment: flow cytometry competition: antibody titrated against recombinant IL-15 (2 nM) binding to HEK293 cells expressing human IL-2Rβ and IL-2Rγ. Background: A flow cytometer gives signals particle by particle.
Experiment [2] has the same target. The experiment in a line: flow cytometry competition: antibody titrated against recombinant IL-2 (5 nM) binding to HEK293 cells expressing human IL-2Rβ and IL-2Rγ.

human IL-2Rβ (CD122), full-length, on cells (human), sequence (P14784 27-551): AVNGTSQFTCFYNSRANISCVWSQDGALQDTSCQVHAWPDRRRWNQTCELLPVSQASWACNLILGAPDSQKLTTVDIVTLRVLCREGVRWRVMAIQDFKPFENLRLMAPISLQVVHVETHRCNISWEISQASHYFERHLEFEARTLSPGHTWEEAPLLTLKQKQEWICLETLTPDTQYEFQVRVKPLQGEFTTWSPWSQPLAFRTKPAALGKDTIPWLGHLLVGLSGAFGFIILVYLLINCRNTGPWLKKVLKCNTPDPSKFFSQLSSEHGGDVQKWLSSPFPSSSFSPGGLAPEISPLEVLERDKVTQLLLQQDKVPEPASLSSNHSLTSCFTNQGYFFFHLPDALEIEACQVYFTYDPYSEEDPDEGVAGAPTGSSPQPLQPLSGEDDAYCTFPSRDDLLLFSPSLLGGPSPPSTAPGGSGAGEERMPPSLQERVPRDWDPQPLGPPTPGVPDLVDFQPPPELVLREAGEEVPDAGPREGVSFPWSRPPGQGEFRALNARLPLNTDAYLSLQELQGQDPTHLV

B1: APE14773.01 (anti-CD122 control ref ABC2) (antibody, from another filing, V domains shown)
VH: EVKLVESGGGLVQPGGSLRLSCATSGFTFSDFYMEWVRQPPGKRLEWIAASRNKANDYTTEYSASVKGRFIVSRDTSQSILYLQMNALRAEDTAIYYCARSYYRYDGMDYWGQGTSVTVSS
VL: QVVLTQSPVIMSASPGEKVTMTCSAISSVSYMYWYQQKPGSSPRLLIYDTSNLVSGVPVRFSGSGSGTSYSLTISRMEAEDAATYYCQQWNTYPYTFGGGTKLEIK
As to B1, the IC50 (read off the curve) in experiment [1] is 0.9 nM; in experiment [2] it was 1 nM.
